For assay [1], the target named is T1, human CXCL1 protein (human, UniProt P09341 35-107).
T1 sequence: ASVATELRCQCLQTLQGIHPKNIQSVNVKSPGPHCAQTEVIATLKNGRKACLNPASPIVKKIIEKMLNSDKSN
Briefly: cell-based or functional assay.

Assay [2] concerns the target T1, human CXCL1 protein. Briefly: antigen-immobilized ELISA, HuCXCL1 on the plate, absorbance (lower left panel). (In general: An ELISA detects its analyte on a solid surface through an enzyme-linked reagent.)
The next assay deals with T2, human CXCL3 (human, UniProt P19876 35-107, limits assumed).
T2 construct: also called HuCXCL3
T2 sequence (looked up): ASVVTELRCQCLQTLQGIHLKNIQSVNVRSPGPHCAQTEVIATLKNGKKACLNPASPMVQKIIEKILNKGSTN
Briefly: blocking ELISA: HuCXCL3 immobilised, antibody 0 to 10 µg/mL, then biotin-labeled heparin 10 µg/mL (blocked ligand: heparin); panel HuCXCL3. How it is done:
(§1) Thus, the effect of Hu5A-5E11 on the binding of CXCLs to GAG was evaluated by ELISA assay using plates on which the antigen (HuCXCL1 protein) used for immunization or HuCXCL2, 3 and 5 and MsCXCL1 and 2 proteins had been directly immobilized. CXCLs other than HuCXCL1 were purchased from PROTEINTECH and used. Biotin-labeled heparan sulfate and heparin were purchased from PG Research and used.
(§2) To 96-well plates, phosphate-buffered saline (PBS) containing 3 μg/mL of HuCXCL1, 2, 3 or 5 or MsCXCL1 or 10 μg/mL of MsCXCL2 was added in a volume of 50 μL per well, and the plates were allowed to stand overnight at 4° C. After removal of the antigen solutions, PBS containing 0.05% Tween-20 (hereinafter referred to as the blocking solution) was added to each well for blocking reaction, and the plates were allowed to stand at room temperature for 30 minutes. […] TMB (Dako) was added as a chromogenic substrate solution to cause color development, and 1 N sulfuric acid was added to stop the reaction, followed by measurement of absorbance at 450 nm. The binding rate of CXCLs to GAG was calculated as a ratio relative to the absorbance measured in the absence of the antibody, which was set to 100%.

A further assay deals with T3, human CXCL5 (human, UniProt P42830 37-114, limits assumed).
T3 construct: also called HuCXCL5
T3 sequence (looked up): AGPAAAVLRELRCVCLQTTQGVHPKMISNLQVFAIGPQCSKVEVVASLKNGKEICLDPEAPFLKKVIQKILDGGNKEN
Briefly: blocking ELISA: HuCXCL5 immobilised, antibody 0 to 10 µg/mL, then biotin-labeled heparin 10 µg/mL (blocked ligand: heparin); panel HuCXCL5. How it is done:
as §1, §2

Assay [3] deals with T1, human CXCL1 protein. Briefly: blocking ELISA: HuCXCL1 immobilised, antibody 0 to 10 µg/mL, then biotin-labeled heparin 10 µg/mL (blocked ligand: heparin); panel HuCXCL1. The method, then:
as §1, §2

A further assay deals with T4, human CXCL2 (human, UniProt P19875 35-107, limits assumed).
T4 construct: also called HuCXCL2
T4 sequence (looked up): T1 sequence with S2P, V3L, P20L, N27K, R48Q, I58M, N68K, S69N, D70G
Briefly: blocking ELISA: HuCXCL2 immobilised, antibody 0 to 10 µg/mL, then biotin-labeled heparan sulfate 10 µg/mL (blocked ligand: heparan sulfate); panel HuCXCL2. How it is done:
as §1, §2

Another assay deals with T5, mouse CXCL1 (mouse, UniProt P12850 25-96, limits assumed).
T5 construct: also called MsCXCL1
T5 sequence (looked up): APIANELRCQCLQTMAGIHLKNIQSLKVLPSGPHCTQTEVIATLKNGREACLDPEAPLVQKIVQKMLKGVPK
Briefly: blocking ELISA: MsCXCL1 immobilised, antibody 0 to 10 µg/mL, then biotin-labeled heparin 10 µg/mL (blocked ligand: heparin); panel MsCXCL1. How it is done:
as §1, §2

Assay [4] has as its target T1, human CXCL1 protein. Briefly: antigen-immobilized ELISA, HuCXCL1 on the plate, absorbance (lower right panel).
The target in assay [5] is T1, human CXCL1 protein. Briefly: antigen-immobilized ELISA, HuCXCL1 on the plate, absorbance (upper right panel; label printed mh4A-7H10, taken as the 4A-2F7 panel).
The target of assay [6] is T1, human CXCL1 protein. Briefly: antigen-immobilized ELISA, HuCXCL1 on the plate, absorbance (upper right panel; chimeric label printed mh4A-7H10, taken as the 4A-2F7 panel).

The source of these data is patent US20250154240A1 (CHIOME BIOSCIENCE, published 2025).

Where a chain is given by its changes, count along the chain named.

B1: 1A-7H10 (antibody, V domains shown)
VH: QVQLKESGPVLVAPSQSLSITCSVSGFSSTTYGVHWVRQPPGQGLEWLGVIWAGGSTNYNSALMSRLSISKDNSKSQVFLKMNSLQTDDTAMYYCATQYHYPFAYWGQGTLVTVSA
VL: NIVMTQSPKSMSMSVGERVTLSCKASENVGIYVSWYQQKPEQSPKLMIYGASNRNTGVPDRFTGSGSATDFTLTISSVQAEDLADYYCGQSYSYPLTFGAGTKLELK
Turning to B1, the “HuCXCL1 neutralizing activity EC50 (nM), Ca^2+ Flux assay” value with human CXCL1 protein [1] was 6.24 nM.

B2: Hu5A-5E11 VH1/VL1 (antibody, V domains shown)
VH: QVQLVQSGAEVKKPGSSVKVSCKASGYAFSDYWMNWVRQAPGQGLEWIGQIYPGSGDTNYNAKFKGKGTITADKSTSTAYMELSSLRSEDTAVYYCARERDYDVAMDYWGQGTTVTVSS
VL: DIQMTQSPSSLSASVGDRVTITCKASQDINKYIAWFQQKPGKAPKLVIHYTSILQPGVPSRFSGSGSGTDYTFTISSLQPEDIATYYCLQYDNLPWTFGGGTKVEIK
notes: also called humanized Hu5A-5E11
For B2, the concentration giving a half-maximal response (EC50 (read off the curve)) with human CXCL1 protein [2] was about 0.02 µg/mL. The “IC50 (read off the curve)” value was about 0.5 µg/mL in the assay with human CXCL3, about 0.6 µg/mL with human CXCL1 protein [3], about 0.8 µg/mL with human CXCL2 and about 0.6 µg/mL with mouse CXCL1. In addition, in the assay with human CXCL5, the binding result was “binds”.

B3: 028-8-12 (antibody, V domains shown)
VH: EVQLLESGGGLVQPGGSLRLSCAASGFTFSELSMSWVRQAPGKGLEWVSAISGSGGSTYYADSVKGRFTISRDNSKNTLYLQMNSLRAEDTAVYYCAREGGRLEPYYYYYAMDVWGQGTPVTVSS
VL: DIQMTQSPSSLSASVGDRVTITCRASQSISDNLHWYQQKPGKAPKLLIYDASNLESGVPSRFSGSGSGTDFTLTINSLQPEDFATYYCQQYYSTPLTFGQGTKLEIK
notes: Unmodified human antibody obtained by the human ADLib technique; also called ADLib#028-08-12; ADLib #028-8-12
For B3, in the assay with human CXCL1 protein [4], the 50% effective concentration (EC50 (read off the curve)) is about 0.04 µg/mL. Besides, in the assay with human CXCL1 protein [1], the “HuCXCL1 neutralizing activity EC50 (nM), Ca^2+ Flux assay” value worked out at 5.73 nM.

B4: ADLib#028-8-12_VH1/VL1 (antibody, V domains shown)
VH: B3 VH with D62S
VL: B3 VL with N76S
notes: Amino acid-modified human antibody; also called modified human antibody 028-8-12
For B4, the “EC50 (read off the curve)” value in the assay with human CXCL1 protein [4] was about 0.04 µg/mL.

B5: mh4A-2F7_VH/VL1 (antibody, V domains shown)
VH: QVTLKESGPGILKPSQTLSLTCSFSGFSLSTSGMGVDWIRQPSGKGLEWLAHIWWDDDKYYNPSLKSQLTISKDTSRNQVFLKITSVDTADTATYYCARSYGYDMDYYAMDYWGQGTSVTVSS
VL: DIQMTQSPSSLSASLGERVSLTCRASQEISGYLSWLQQKPDGTIKRLIYAASTLSSGVPKRFSGSRSGSDYSLTISSLESEDFADYYCLQYASYPPWTFGGGTKLEIK
On to B5, for which the concentration for a half-maximal effect (EC50 (read off the curve)) with human CXCL1 protein [5] is about 0.02 µg/mL.

B6: Hu4A-2F7 VH1/VL1 (antibody, V domains shown)
VH: QVTLKESGPALVKPTQTLTLTCTFSGFSLSTSGMGVDWIRQPPGKALEWLAHIWWDDDKYYNPSLKSQLTISKDTSKNQVVLTMTNMDPVDTATYYCARSYGYDMDYYAMDYWGQGTTVTVSS
VL: DIQMTQSPSSLSASVGDRVTITCRASQEISGYLSWLQQKPGKAPKRLIYAASTLSSGVPSRFSGSGSGTDFTLTISSLQPEDFATYYCLQYASYPPWTFGGGTKVEIK
As for B6, in the assay with human CXCL1 protein [6], the “EC50 (read off the curve)” value is about 0.02 µg/mL.

B7: Hu4A-2F7 VH1/VL2 (antibody, V domains shown)
VH: B6 VH
VL: B6 VL with F71Y
notes: Humanized antibody
Turning to B7, the “EC50 (read off the curve)” value in the assay with human CXCL1 protein [6] was about 0.02 µg/mL.

B8: Hu4A-2F7 VH2/VL1 (antibody, V domains shown)
VH: B6 VH with A46G
VL: B6 VL
notes: Humanized antibody
For B8, the “EC50 (read off the curve)” value with human CXCL1 protein [6] was about 0.02 µg/mL.

B9: Hu4A-2F7 VH2/VL2 (antibody, V domains shown)
VH: B6 VH with A46G
VL: B6 VL with F71Y
notes: Humanized antibody
On to B9, for which the “EC50 (read off the curve)” value with human CXCL1 protein [6] is about 0.02 µg/mL.

Broadly, the EC50 (read off the curve) is the concentration needed to bring the measured effect to its halfway point. The low end stands for an effect from little substance, the high end for a need for much substance.
